Here are results for one molecule from article PMC4990970 (Scientific Reports, 2016).

Test [1] has as its target T1, Calmodulin (CaM) (UniProt P0DP23 1-149).
T1 construct: Calmodulin, full length; apo-CaM (5 mM EGTA) and holo-CaM (10 mM CaCl2) are the same protein; the assays tell them apart; Se-Met-substituted apo-CaM was used for anomalous signals in the structure determination; also called apo-CaM; Ca2+-free CaM; source: Escherichia coli, purified using chromatography techniques
The test can be described thus: ITC; iTC200, room temperature, 20 mM Tris-HCl pH 7.5, 500 mM NaCl, 5 mM EGTA (apo-CaM, absence of calcium); 0.05-0.1 mM in the cell, 0.5-1.0 mM in the syringe. Conditions: both partners purified. (Isothermal titration calorimetry measures the heat released or taken up as one component is titrated into another.)

The target of test [2] is T1, Calmodulin (CaM). The test can be described thus: ITC; iTC200, room temperature, 20 mM Tris-HCl pH 7.5, 500 mM NaCl, 10 mM CaCl2 (holo-CaM, presence of calcium); 0.05-0.1 mM in the cell, 0.5-1.0 mM in the syringe. The settings on record: both partners purified.

B1: AtBAG5-IQR (AtBAG5-long with Ile57, Gln58 and Arg62 substituted with alanine) (domain or fragment)
chain: NATAAAARAASGYASYRIRNLYKKISSINREANRVQSIIQRQETVDAIRSDEKERLRMNETLMALLLKLDSVPGLDPTIREARRKVSRKIVGMQEILDSISETKD
notes: AtBAG5, Arabidopsis thaliana, residues 49-153 (AtBAG5-long) with three conserved residues of the IQ motif changed to alanine; also called IQ motif mutant; AtBAG5-IQR mutant; source: Escherichia coli, purified using chromatography techniques
As to B1, the Kd turned out to be 1160 µM in test [1] and 7.14 µM in test [2].

One may read the Kd as the concentration at which binding is half-saturated.
